Assay results taken from paper PMC4136841, “Is Thymidine Glycol Containing DNA a Substrate of E. coli DNA Mismatch Repair System?”.
Residue numbers refer to the chain shown, from its start.

Molecular target: T1, MutS (Escherichia coli, UniProt P23909 1-853)
T1 sequence: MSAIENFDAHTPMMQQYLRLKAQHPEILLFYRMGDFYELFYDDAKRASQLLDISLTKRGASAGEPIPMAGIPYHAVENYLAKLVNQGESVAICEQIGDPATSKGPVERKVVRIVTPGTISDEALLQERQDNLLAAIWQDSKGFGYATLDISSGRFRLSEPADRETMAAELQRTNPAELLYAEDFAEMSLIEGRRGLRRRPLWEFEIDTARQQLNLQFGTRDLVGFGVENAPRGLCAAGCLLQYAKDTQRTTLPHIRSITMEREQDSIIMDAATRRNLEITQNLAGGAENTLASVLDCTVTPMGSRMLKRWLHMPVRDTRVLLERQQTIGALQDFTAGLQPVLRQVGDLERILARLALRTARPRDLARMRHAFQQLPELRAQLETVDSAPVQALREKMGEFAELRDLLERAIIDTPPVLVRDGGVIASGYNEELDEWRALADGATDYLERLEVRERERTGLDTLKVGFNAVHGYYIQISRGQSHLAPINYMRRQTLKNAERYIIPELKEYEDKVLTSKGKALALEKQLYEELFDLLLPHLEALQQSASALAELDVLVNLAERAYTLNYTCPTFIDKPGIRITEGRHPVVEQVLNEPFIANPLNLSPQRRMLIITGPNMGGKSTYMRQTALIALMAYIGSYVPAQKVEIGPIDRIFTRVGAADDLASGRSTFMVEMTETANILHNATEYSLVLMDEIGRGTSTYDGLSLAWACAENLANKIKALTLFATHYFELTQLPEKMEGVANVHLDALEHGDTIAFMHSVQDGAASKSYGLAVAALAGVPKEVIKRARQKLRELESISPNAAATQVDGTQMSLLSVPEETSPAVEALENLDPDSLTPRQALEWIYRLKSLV
Assay: EMSA (Scatchard); 1 mM ADP, 5 mM Mg2+; EMSA: 20 mM HEPES pH 8.0, 125 mM KCl, 1 mM ADP, 5 mM MgCl2, 1 mg/ml BSA, 9% glycerol, 37 C 20 min (gel at 4 C); fluorescence: 25 mM Tris-HCl pH 7.5, 125 mM KCl, 5 mM MgCl2, 1 mM ADP, 20 C
Details: protein: recombinant, tags: His-tag (Ni-NTA purified), chain copies: 2, label: 5'-32P, blunt

B1: duplex IV (A/Tg) (dsDNA)
DNA 1: CAAGCCTATGCCCTCAGCACCCAAGGTGCC
DNA 2: GGCACCTTGGGTGCTGAGGGCATAGGCTTG
modifications: thymidine glycol (5R,6S) at T7 of strand 2
Work on B1 yielded a Kd (strand 1 A24 : strand 2 Tg7) of 25 ± 3 nM.

B2: duplex I (G/C) (dsDNA)
DNA 1: B1 DNA 1 with A24G
DNA 2: B1 DNA 2 with T7C
Work on B2 yielded a Kd of 32 ± 3.3 nM.

B3: duplex III (G/Tg) (dsDNA)
DNA 1: B1 DNA 1 with A24G
DNA 2: B1 DNA 2
modifications: thymidine glycol (5R,6S) at T7 of strand 2
In the case of B3, the Kd (strand 1 G24 : strand 2 Tg7) is reported as 44 ± 2.3 nM.

B4: duplex II (G/T) (dsDNA)
DNA 1: B1 DNA 1 with A24G
DNA 2: B1 DNA 2
With B4 the Kd (G/T mismatch strand 1 G24 : strand 2 T7) was 7 ± 1.5 nM.
